These results are taken from US20240150484A1.

Experiment [1] has as its target FcγRIIIa on natural killer cells in human PBMC (human) (UniProt P08637). The experiment is described as follows: cell-based or functional assay.
For experiment [2], the target named is His-tagged murine FcγRI monomeric ECD (Sino Biological) (murine) (UniProt P26151). The experiment is described as follows: BLI, FcγR on Ni-NTA sensor, 1:1 global fit.
The target in experiment [3] is His-tagged human FcγRIa monomeric ECD (Sino Biological) (human) (UniProt P12314). Kind of experiment: BLI, 1:1 global fit; analysis not optimal, <4 fits.
Sequence of His-tagged human FcγRIa monomeric ECD (Sino Biological) (human) (P12314 16-292): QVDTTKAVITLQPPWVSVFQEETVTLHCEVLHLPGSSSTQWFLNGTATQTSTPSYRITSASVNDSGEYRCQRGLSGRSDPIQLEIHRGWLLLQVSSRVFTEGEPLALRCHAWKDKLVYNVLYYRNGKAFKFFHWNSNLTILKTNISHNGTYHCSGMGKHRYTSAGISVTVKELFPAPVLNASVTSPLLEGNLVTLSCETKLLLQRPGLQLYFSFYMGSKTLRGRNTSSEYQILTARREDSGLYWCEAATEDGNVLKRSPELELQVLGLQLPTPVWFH
In experiment [4] the target is His-tagged biotinylated murine FcγRIV monomeric ECD (Sino Biological) (murine). Kind of experiment: BLI, steady state; responses did not reach a plateau. In general terms: Biolayer interferometry detects binding as a change in optical thickness at a sensor tip.
Sequence of His-tagged biotinylated murine FcγRIV monomeric ECD (Sino Biological) (murine) (A0A0B4 entry or part of it limits assumed): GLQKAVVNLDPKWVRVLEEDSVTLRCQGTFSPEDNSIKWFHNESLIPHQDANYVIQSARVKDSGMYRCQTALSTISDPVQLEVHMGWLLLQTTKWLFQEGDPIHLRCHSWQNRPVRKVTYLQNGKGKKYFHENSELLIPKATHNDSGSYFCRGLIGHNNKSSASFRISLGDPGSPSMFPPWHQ
Experiment [5] addresses His-tagged biotinylated human FcγRIIIa allotype 158V monomeric ECD (Sino Biological) (human) (UniProt P08637). Described as above.
For experiment [6] the target is unchanged. The experiment is described as above. The source holds these as a separate data set.
In experiment [7] the target is His-tagged biotinylated murine FcγRIV monomeric ECD (Sino Biological) (murine). Kind of experiment: BLI.
Experiment [8] deals with His-tagged murine FcγRI monomeric ECD (Sino Biological) (murine) (UniProt P26151). The experiment is described as follows: BLI, 1:1 global fit; analysis not optimal, <4 fits.
Experiment [9] shares this target. The experiment is described as follows: BLI.
Experiment [10] deals with His-tagged biotinylated cynomolgus FcγRIIa monomeric ECD (Sino Biological) (cynomolgus (Macaca fascicularis)). The experiment is described as follows: BLI, FcγR on SA sensor, steady state.
Experiment [11] deals with His-tagged biotinylated murine FcγRIV monomeric ECD (Sino Biological) (murine). The experiment is described as follows: BLI, FcγR on SA sensor, steady state.
For experiment [12], the target named is His-tagged biotinylated murine FcγRIII monomeric ECD (Sino Biological) (murine) (UniProt P08508). Kind of experiment: BLI, FcγR on SA sensor, steady state.
Sequence of His-tagged biotinylated murine FcγRIII monomeric ECD (Sino Biological) (murine) (P08508 31-215): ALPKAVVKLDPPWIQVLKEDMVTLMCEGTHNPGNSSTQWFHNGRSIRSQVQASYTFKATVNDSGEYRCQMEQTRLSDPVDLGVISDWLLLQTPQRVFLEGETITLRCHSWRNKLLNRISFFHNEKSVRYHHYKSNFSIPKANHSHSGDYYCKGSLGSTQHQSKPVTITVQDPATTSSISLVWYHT
Experiment [13] addresses His-tagged biotinylated human FcγRIIIa allotype 158V monomeric ECD (Sino Biological) (human) (UniProt P08637). The experiment is described as follows: BLI, FcγR on SA sensor, steady state.
For experiment [14], the target named is His-tagged biotinylated cynomolgus FcγRIII monomeric ECD (ACROBiosystems) (cynomolgus (Macaca fascicularis)) (UniProt Q8SPW2). The experiment is described as follows: BLI, FcγR on SA sensor, steady state.
Sequence of His-tagged biotinylated cynomolgus FcγRIII monomeric ECD (ACROBiosystems) (cynomolgus (Macaca fascicularis)) (Q8SPW2 17-208): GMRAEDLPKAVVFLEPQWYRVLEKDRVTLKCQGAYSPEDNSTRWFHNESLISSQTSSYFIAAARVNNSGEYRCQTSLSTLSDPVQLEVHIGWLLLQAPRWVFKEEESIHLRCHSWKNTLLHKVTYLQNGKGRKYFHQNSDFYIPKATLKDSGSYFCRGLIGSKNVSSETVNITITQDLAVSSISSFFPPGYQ
Experiment [15] concerns the target His-tagged biotinylated murine FcγRIIb monomeric ECD (Sino Biological) (murine) (UniProt P08101). The experiment is described as follows: BLI, FcγR on SA sensor, steady state.
The target of experiment [16] is His-tagged biotinylated cynomolgus FcγRIIb monomeric ECD (Sino Biological) (cynomolgus (Macaca fascicularis)). The experiment is described as follows: BLI, FcγR on SA sensor, steady state.
For experiment [17], the target named is His-tagged human FcγRIa monomeric ECD (Sino Biological) (human) (UniProt P12314). Kind of experiment: BLI, FcγR on Ni-NTA sensor, 1:1 global fit.
In experiment [18] the target is His-tagged cynomolgus FcγRI monomeric ECD (R&D Systems) (cynomolgus (Macaca fascicularis)). Kind of experiment: BLI, FcγR on Ni-NTA sensor, 1:1 global fit.
Experiment [19] addresses His-tagged biotinylated human FcγRIIa allotype 131H monomeric ECD (Sino Biological) (human) (UniProt P12318). The experiment is described as follows: BLI, FcγR on SA sensor, steady state.
Experiment [20] addresses His-tagged biotinylated human FcγRIIb monomeric ECD (Sino Biological) (human) (UniProt P31994). The experiment is described as follows: BLI, FcγR on SA sensor, steady state.

Sequence of His-tagged murine FcγRI monomeric ECD (Sino Biological) (murine) (P26151 25-297): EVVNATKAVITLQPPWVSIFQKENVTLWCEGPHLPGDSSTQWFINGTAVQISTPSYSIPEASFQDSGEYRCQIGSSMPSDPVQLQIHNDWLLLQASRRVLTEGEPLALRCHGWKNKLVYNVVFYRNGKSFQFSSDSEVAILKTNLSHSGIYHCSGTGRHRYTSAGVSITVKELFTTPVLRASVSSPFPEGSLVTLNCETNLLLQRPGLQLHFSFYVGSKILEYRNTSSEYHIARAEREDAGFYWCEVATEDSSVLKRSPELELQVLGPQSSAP
Sequence of His-tagged biotinylated human FcγRIIIa allotype 158V monomeric ECD (Sino Biological) (human) (P08637 17-208 F176V): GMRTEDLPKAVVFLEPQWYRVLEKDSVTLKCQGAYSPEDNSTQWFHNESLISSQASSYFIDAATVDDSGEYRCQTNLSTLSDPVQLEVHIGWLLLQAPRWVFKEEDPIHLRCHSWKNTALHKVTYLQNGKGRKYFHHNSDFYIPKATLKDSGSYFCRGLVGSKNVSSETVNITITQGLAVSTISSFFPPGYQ
Sequence of His-tagged biotinylated murine FcγRIIb monomeric ECD (Sino Biological) (murine) (P08101 30-210): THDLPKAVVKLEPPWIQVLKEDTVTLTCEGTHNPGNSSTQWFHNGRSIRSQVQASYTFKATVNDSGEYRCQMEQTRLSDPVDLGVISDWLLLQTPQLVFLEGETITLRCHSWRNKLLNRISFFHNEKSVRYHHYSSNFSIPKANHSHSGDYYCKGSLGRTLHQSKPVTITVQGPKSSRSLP
Sequence of His-tagged biotinylated human FcγRIIb monomeric ECD (Sino Biological) (human) (P31994 43-217): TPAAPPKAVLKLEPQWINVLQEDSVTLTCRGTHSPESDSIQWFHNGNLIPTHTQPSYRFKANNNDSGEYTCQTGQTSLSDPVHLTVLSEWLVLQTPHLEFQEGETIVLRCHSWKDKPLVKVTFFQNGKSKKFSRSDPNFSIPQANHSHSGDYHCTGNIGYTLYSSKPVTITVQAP
Sequence of His-tagged biotinylated human FcγRIIa allotype 131H monomeric ECD (Sino Biological) (human) (P12318 34-217): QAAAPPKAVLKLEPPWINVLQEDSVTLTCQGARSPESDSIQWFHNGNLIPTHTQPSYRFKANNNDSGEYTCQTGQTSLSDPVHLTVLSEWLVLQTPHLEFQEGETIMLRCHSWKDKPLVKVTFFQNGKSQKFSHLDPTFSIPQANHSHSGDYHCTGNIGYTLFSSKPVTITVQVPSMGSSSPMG
Sequence of FcγRIIIa on natural killer cells in human PBMC (human) (P08637 17-254): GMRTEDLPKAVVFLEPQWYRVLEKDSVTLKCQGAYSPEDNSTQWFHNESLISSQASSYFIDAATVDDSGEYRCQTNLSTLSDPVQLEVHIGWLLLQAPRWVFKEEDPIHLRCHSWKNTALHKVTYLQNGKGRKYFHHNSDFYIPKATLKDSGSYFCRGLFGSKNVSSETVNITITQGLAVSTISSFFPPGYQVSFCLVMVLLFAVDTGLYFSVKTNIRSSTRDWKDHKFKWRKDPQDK

In the case of “anti-human CD20 IgG1-L234F-L235E-G236R-K409R (antibody)”, the reduction of ADCC of Raji cells in experiment [1] worked out at 69%.
Consider “murine anti-human CD20 IgG2a-L234A-L235A (antibody)”, for which the Kd was 238 nM in experiment [2]; 3610 nM in [3]; 13800 nM in experiment [4]; 11700 nM in experiment [5]; 13800 nM in experiment [6]. The koff in experiment [2] came out at 0.00231 s⁻¹; in experiment [3], 0.0163 s⁻¹. The kon in [2] came out at 9730 M⁻¹ s⁻¹; in experiment [3], 4530 M⁻¹ s⁻¹. The substance also had a fold reduction vs wt IgG2a in experiment [7] of 100 fold.
Take “murine anti-human CD20 IgG2a-L234A-L235A-P329G (antibody)”: in experiment [8], the Kd came out at 364 nM, the koff came out at 0.002 s⁻¹ and the kon was 5500 M⁻¹ s⁻¹. Moreover, in experiment [9], the fold reduction of binding affinity vs wild-type IgG2a was determined as 100 fold.
The like results for “murine anti-human CD20 IgG2a-L234F-L235E-G236R (antibody)” were, in that order, 430 nM, 0.00227 s⁻¹, 5300 M⁻¹ s⁻¹ and 100 fold.
Consider “wild-type anti-human CD20 IgG1 antibody (IgG1-CD20)”, for which the Kd stood at 4250 nM in experiment [10]; 1040 nM in experiment [11]; 7450 nM in experiment [12]; 565 nM in experiment [13]; 415 nM in [14]; 2850 nM in [15]. Further, the Kd in experiment [16] was found to be 3900 nM; in [17], 1.84 nM; in [18], 0.626 nM; in experiment [2] it was 124 nM.
Turning to “wild-type murine anti-human CD20 IgG2a antibody”, the Kd in experiment [11] stood at 145 nM; in [12], 6900 nM; in experiment [19], 1850 nM; in [13], 1950 nM; in experiment [15] it was 6400 nM; in experiment [20], 17000 nM. Further, the values for the equilibrium dissociation constant (Kd) in [17] and in experiment [2] were 1.27 nM and 3.82 nM, respectively. For the same substance, the figures for the koff in experiment [17] and in experiment [2] were 0.00039 s⁻¹ and 0.000619 s⁻¹, respectively. Besides, the kon was 311000 M⁻¹ s⁻¹ in experiment [17] and 162000 M⁻¹ s⁻¹ in [2].

A word on the Kd: it is a measure of binding affinity in units of concentration. High values mean weaker binding, low ones tighter binding. What is called koff is a measure of how fast the partners let go of each other. Read a high koff as a short-lived complex. As usually defined, the kon is a measure of how fast the partners come together. Low readings indicate slow association, high ones fast association.
